Experimental findings from US9234036B2, “Modulation of activity of proneurotrophins” (H. Lundbeck A/S, priority 2006, dated 2016) are described below.

As usually defined, the Kd is the free concentration of one partner at which half of the binding sites on the other are occupied at equilibrium, for simple one-to-one binding.

One assay deals with T1, GST-pro-dom-NGF (Homo sapiens, UniProt P01138, A35V).
T1 construct: previously described GST-NGF-pro-domain fusion protein (Nykjaer et al., Nature 2004)
T1 sequence (P01138 19-121 A35V): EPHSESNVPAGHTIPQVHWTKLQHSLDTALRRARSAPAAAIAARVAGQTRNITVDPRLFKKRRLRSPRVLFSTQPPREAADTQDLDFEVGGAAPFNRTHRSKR
Put plainly: SPR binding of GST-pro-dom-NGF to immobilized sortilin site-directed mutants. On the procedure:
Site-directed mutagenesis was performed for all important residues within the peptide sequence as identified by the substitution analysis in the SPOT method, using the pCepPU expression vector for sortilin as template. The thereby generated mutant constructs were used together with HEK293 cells to produce single residue mutants of the his-tagged sortilin luminal domain, to obtain the proteins R163A, F165A, R166A, F170A, K172A, and F174A numbered according to pro-Sortilin as specified in the sequence overview. As a control protein, the mutant R160A located N-terminally to the recognition sequence, was produced in order to have a protein with unaltered affinity for the NGF-prodomain.
After purification by standard Ni^2+-NTA chromatography, each sortilin mutant was immobilized to a similar surface density on Biacore CM5 chips. Binding was tested using concentration series of the previously described GST-NGF-pro-domain fusion protein (Nykjaer et al., Nature 2004), which is able to render a higher response using the SPR system at low concentration. Thus concentration series of 10, 20, 30, 40, and 50 nM GST-prodomain of NGF was applied to each chip surface, and data was fitted to a 1:1 binding model using the standard BIAevaluation software.
This model is further supported by the previous data in the substitution analysis, where a stronger effect upon mutation was observed when using peptides containing only one of the binding motives, as compared to mutants spanning both motives. Accordingly, it was decided to “remove” an entire motif before substitution within the second motif and to be able to observe how that would influence binding of the ligand. A sortilin variant was produced containing quadruple substitutions (R163A, F165A, R166A, and […] F170A) in a similar procedure using HEK293 cells as applied for single residue mutants.
To determine ligand binding capacity, quatro protein was coupled in parallel to the wild-type sortilin on a new Biacore chip, and binding of GST-pro-NGF was measured in a manner similar to the analysis of single residue mutants (FIG. 21).

The target in a further assay is T2, pro-dom-BDNF (Homo sapiens, UniProt P23560).
T2 construct: pro-dom-BDNF (residues Ala^1-Arg^110); made in house; host or cells: E. coli BL21/DE3
T2 sequence (P23560 19-128 limits assumed): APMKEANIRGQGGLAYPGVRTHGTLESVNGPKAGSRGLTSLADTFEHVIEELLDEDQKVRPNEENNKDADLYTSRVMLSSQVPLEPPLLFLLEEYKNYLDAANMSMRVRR
The experiment in a line: SPOT analysis of pro-dom-BDNF binding to cellulose-bound sortilin peptides. The settings on record: HRP-S-protein detection where stated. The source says:
(§1) Peptide libraries were generated for all members of the Vps10p-domain receptor gene family or specific peptide variations in terms of substitution or length of identified Sortilin binding peptides. A total of 2181 peptides was used for representation of the Sortilin gene family, corresponding to 273 peptides for Sortilin (accession code: CAA66904), 734 peptides for SorLA (accession code: NP_003096), 389 peptides for SorCS1 (accession code: NP_001013049), 382 peptides for sorCS2 (accession code: Q96PQ0), and 403 peptides for SorCS3 (accession code: CAI64579), with a 13 amino acid overlap between 16-mers.
(§2) A cellulose support is prepared as a N-modified cellulose-amino-hydroxylpropyl ether membrane, and all rounds of synthesis starts with SPOT definition by 9-fluorenyl-methoxycarbonyl-β-alanine-pentafluoophenyl ester that creates an alanine linker between peptide and membrane. Then followed an automated linear synthesis of stepwise addition of the different amino acids protected at their amino terminal by 9-fluorenyl-methoxycarbonyl and appropriate side chain protection for the growing peptide chain. The pattern of deprotection, activation, and coupling continued until 16-mer peptides were produced, resulting in an equally distributed array of covalently anchored peptides to the cellulose support at their C-terminal and an N-terminal free end.
(§3) The membrane-bound libraries were incubated with a combined S-peptide and poly-histidine-tagged pro-domains (10 ug/mL) in blocking buffer over night at 4 C, followed by a second incubation with 1 ug/mL of HRP-conjugated S-protein from Novagen (cat. no. 69047-3) also in blocking buffer but for 3 h at room temperature. Subsequently, the membrane was washed three times for 10 min with TBS before quantitative characterization of bound ligand was carried out using the UptiLight chemoluminescence substrate from Uptima (cat. no. UP99619A) and the Lumilmager instrument from Roche Diagnostics, providing the SPOT signal intensities in Boehringer Light Units (BLUs). […]

For another assay, the target named is T3, pro-dom-NGF (Homo sapiens, UniProt P01138, A35V).
T3 construct: pro-dom-NGF (residues Glu^1-Arg^102); made in house; host or cells: E. coli BL21/DE3
T3 sequence (P01138 19-121 A35V): T1 sequence (P01138 19-121 A35V)
The experiment in a line: SPOT analysis of pro-dom-NGF binding to cellulose-bound sortilin peptides. The note with it: HRP-S-protein detection where stated.
From the text: as §1, §2, §3

The target in assay [1] is T4, proNGF binding to immobilized Sortilin (Homo sapiens, UniProt Q99523).
T4 construct: 51 fmol/mm^2 purified Sortilin extracellular domain; made in house; host or cells: Sortilin: stably transfected CHO cells; proNGF: E. coli
T4 sequence (Q99523 78-755 limits assumed): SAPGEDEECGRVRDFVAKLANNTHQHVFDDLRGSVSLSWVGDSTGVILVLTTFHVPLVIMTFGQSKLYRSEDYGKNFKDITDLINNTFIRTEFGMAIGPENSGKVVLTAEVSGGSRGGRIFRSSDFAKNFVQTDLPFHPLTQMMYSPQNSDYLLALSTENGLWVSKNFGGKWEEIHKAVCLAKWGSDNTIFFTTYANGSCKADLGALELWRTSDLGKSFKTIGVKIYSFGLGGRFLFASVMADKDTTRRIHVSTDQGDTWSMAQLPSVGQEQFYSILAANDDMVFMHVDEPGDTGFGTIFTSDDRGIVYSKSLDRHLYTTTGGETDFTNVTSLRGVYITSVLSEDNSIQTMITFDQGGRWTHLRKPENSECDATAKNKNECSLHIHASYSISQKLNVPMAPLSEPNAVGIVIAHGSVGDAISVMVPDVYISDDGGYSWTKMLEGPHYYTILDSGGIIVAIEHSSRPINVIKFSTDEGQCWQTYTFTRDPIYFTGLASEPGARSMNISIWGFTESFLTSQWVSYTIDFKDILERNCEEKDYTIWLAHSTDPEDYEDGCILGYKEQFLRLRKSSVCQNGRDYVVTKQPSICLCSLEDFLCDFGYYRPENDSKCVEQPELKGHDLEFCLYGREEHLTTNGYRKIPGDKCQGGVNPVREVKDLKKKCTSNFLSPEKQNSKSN
Put plainly: Inhibition of proNGF binding to immobilized Sortilin (Biacore). The note with it: then coinjection, 51 fmol/mm^2 Sortilin (FIG. 6).

Setting [2] is: GST-pro-dom-NGF at 10-50 nM, 1:1 binding model.

“Also recorded” adds a separate entry of the source. Where no end group is shown, it is not given here.

Consider “R166A: single residue mutant of his-tagged sortilin luminal domain; SEQ ID NO 53 (RGGRIFASSDFAKNF; not fully specified)”, for which, in the assay with GST-pro-dom-NGF (setting [2]), the affinity, expressed as Kd, was 4.38 nM; the ka is 6.48 × 10^4; the kd is on record as 2.85 × 10^−4.

For the molecule “R163A: single residue mutant of his-tagged sortilin luminal domain; SEQ ID NO 51 (RGGAIFRSSDFAKNF; not fully specified)”, in the assay with GST-pro-dom-NGF (setting [2]), the equilibrium dissociation constant (Kd) came to 2.7 nM, the ka was 1.85 × 10^5 and the kd is 4.21 × 10^−4.

For the molecule FAKNFVQTD (listed as Homo Sapiens), in the assay with pro-dom-BDNF, the “pro-dom-BDNF binding in SPOT analysis” value was “efficient binding”. Moreover, the “pro-dom-NGF binding in SPOT analysis” value in the assay with pro-dom-NGF was “efficient binding”.

Take “F174A: single residue mutant of his-tagged sortilin luminal domain; SEQ ID NO 56 (RGGRIFRSSDFAKNA; not fully specified)”: in the assay with GST-pro-dom-NGF (setting [2]), the dissociation constant Kd stood at 4.27 nM, the ka is given as 2.35 × 10^5 and the kd is 1.03 × 10^−3.

As to “R160A: single residue mutant of his-tagged sortilin luminal domain, control; SEQ ID NO 50 (AGGRIFRSSDFAKNF; not fully specified)”, in the assay with GST-pro-dom-NGF (setting [2]), the Kd was found to be 1.89 nM, the ka is 1.47 × 10^5 and the kd is 2.27 × 10^−4.

In the case of “F170A: single residue mutant of his-tagged sortilin luminal domain; SEQ ID NO 54 (RGGRIFRSSDAAKNF; not fully specified)”, in the assay with GST-pro-dom-NGF (setting [2]), the equilibrium dissociation constant (Kd) stood at 5.59 nM, the ka is 1.30 × 10^5 and the kd is listed as 5.91 × 10^−4.

As to “Sortilin propeptide: propeptide of the Sortilin receptor (QDRLDAPPPPAAPLPRWSGPIGVSWGLRAAAAGGAFPRGGRWRR)”, the “inhibition of binding of 200 nM proNGF to immobilized Sortilin” value in assay [1] (5 μM inhibitor prebound) is about 65%.

As to RIFRSSDF (listed as Homo Sapiens), the “pro-dom-BDNF binding in SPOT analysis” value with pro-dom-BDNF is given as “efficient binding”. Besides, in the assay with pro-dom-NGF, the “pro-dom-NGF binding in SPOT analysis” value is reported as “efficient binding”.

For the molecule “quatro: sortilin variant with quadruple substitutions R163A, F165A, R166A, F170A; SEQ ID NO 57 (RGGAIAASSDAAKNF; not fully specified)”, the “binding of GST-pro-dom-NGF compared with sortilin wt” value with GST-pro-dom-NGF (50 nM GST-pro-dom-NGF, FIG. 22) is “severely affected; also recorded: strongly reduced affinity”. Besides, the KD result in the assay with GST-pro-dom-NGF (setting [2]) is on record as “no binding”.

Take “K172A: single residue mutant of his-tagged sortilin luminal domain; SEQ ID NO 55 (RGGRIFRSSDFAANF; not fully specified)”: in the assay with GST-pro-dom-NGF (setting [2]), the Kd was found to be 3.91 nM, the ka was 1.01 × 10^5 and the kd is 3.46 × 10^−4.

As for “RIFR: 4-mer sortilin peptide, SEQ ID NO:25 residues 7-10 (listed as Homo Sapiens)”, the “pro-dom-BDNF binding in SPOT analysis” value with pro-dom-BDNF is “binds very strongly”. The “pro-dom-NGF binding in SPOT analysis” value in the assay with pro-dom-NGF is listed as “binds very strongly”.

With “F165A: single residue mutant of his-tagged sortilin luminal domain; SEQ ID NO 52 (RGGRIARSSDFAKNF; not fully specified)”, in the assay with GST-pro-dom-NGF (setting [2]), the dissociation constant Kd was 3.86 nM, the ka is 1.10 × 10^5 and the kd is 4.22 × 10^−4.

B1: RAP: receptor-associated protein, SEQ ID NO 12 (protein, listed as Homo Sapiens)
chain: MAPRRVRSFLRGLPALLLLLLFLGPWPAASHGGKYSREKNQPKPSPKRESGEEFRMEKLNQLWEKAQRLHLPPVRLAELHADLKIQERDELAWKKLKLDGLDEDGEKEARLIRNLNVILAKYGLDGKKDARQVTSNSLSGTQEDGLDDPRLEKLWHKAKTSGKFSGEELDKLWREFLHHKEKVHEYNVLLETLSRTEEIHENVISPSDLSDIKGSVLHSRHTELKEKLRSINQGLDRLRRVSHQGYSTEAEFEEPRVIDLWDLAQSANLTDKELEAFREELKHFEAKIEKHNHYQKQLEIAHEKLRHAESVGDGERVSRSREKHALLEGRTKELGYTVKKHLQDLSGRISRARHNEL
With B1, the “inhibition of binding of 200 nM proNGF to immobilized Sortilin” value in assay [1] (10 μM inhibitor prebound) is reported as about 65%.
